From patent US20230303685A1 (ELECTRA THERAPEUTICS, published 2023)
Changes are numbered by the printed parent chain. Each block holds one binder with its values, some of them ahead of it.

Key:
[1] = target: T1, human SIRPα V1 extracellular domain, monomeric (human, UniProt P78324 31-373); assay: SPR (Biacore); antibody captured by anti-IgG on chip, monomeric SIRPα extracellular domain as analyte, 1:1 model
T1 construct: also called hSIRPα V1
Description: (§1) Selected antibodies were tested for their affinities to two hSIRPα variants (V1 and V2), and to cynomolgus monkey (herein referred to as “cyno”) SIRPα. The affinities of these SIRP antibodies were determined using surface plasmon resonance. The SIRP antibodies were flowed onto a chip and captured by an anti-mouse IgG or an anti-human IgG covalently coupled to the surface of the chip. A three-point titration of the extracellular binding domain of hSIRPα was performed per the manufacturer's recommended protocols.

[2] = target: T2, human SIRPα V2 extracellular domain, monomeric (human, UniProt P78324 31-370); assay: as above
T2 construct: also called hSIRPα V2
Description: as §1

[3] = target: T3, cynomolgus monkey SIRPα extracellular domain, monomeric (cynomolgus monkey, UniProt A0A2K5VYQ9 31-372); assay: as above
T3 construct: extracellular domain; also called Cyno SIRPα
Description: as §1

Human SIRPγ [4] = target: T4, Human SIRPγ; assay: ELISA, extracellular domain coated at 1 µg/mL, purified antibody titrated, anti-human IgG, chemiluminescence
T4 construct: also called human SIRPγ extracellular domain, plate-coated
T4 chain: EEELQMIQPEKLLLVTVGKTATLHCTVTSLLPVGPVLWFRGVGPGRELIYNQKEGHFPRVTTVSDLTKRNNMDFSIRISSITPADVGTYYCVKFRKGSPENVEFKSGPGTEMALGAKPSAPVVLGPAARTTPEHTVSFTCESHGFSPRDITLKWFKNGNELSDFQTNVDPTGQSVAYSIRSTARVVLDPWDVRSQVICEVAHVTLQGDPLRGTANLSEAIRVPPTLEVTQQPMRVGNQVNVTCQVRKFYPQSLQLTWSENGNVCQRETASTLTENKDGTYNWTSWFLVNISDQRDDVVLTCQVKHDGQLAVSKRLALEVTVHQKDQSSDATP
Description: (§2) Select SIRP antibodies were purified by Protein G from hybridoma supernatants and analyzed in a titration via ELISA. Briefly, 1 μg/mL of extracellular domain SIRPα was coated onto high protein-binding plates and blocked. Purified antibodies were added in a titration to the coated plates. The antibodies were detected by an anti-rat IgG antibody and a chemiluminescent substrate.
FIGS. 3A-3C show binding curves of SIRP antibodies and two isotype controls with human Fc to human SIRPα V1, human SIRPβ1, human SIRPγ and cynomolgus monkey SIRPα by ELISA. […] Isotype control 1 was an unrelated human IgG1 antibody with irrelevant CDRs. Isotype control 2 was the same as isotype control 1 but contained the same amino acid substitutions in the Fc region as some of the selected SIRP antibodies for increased FcγR binding (referring to Table 11). DNA was transiently transfected into CHO cells for 7 days. Antibodies were purified by Protein A from cell supernatants and analyzed in a titration via ELISA as previously described in FIGS. 2A-2B using an anti-human IgG antibody as the detection antibody.

[5] = target: T5, human SIRPα V1-His monomer (human, UniProt P78324 31-373, limits assumed); assay: BLI (Octet); antibody on anti-mouse IgG capture tip, SIRP-His monomer at 100, 33.3, 11.1 nM, 1:1 fit, mean KD
T5 construct: 'SIRP-His monomer protein' of the Octet assay; also called SIRP-His; not shown: His tag
Description: (§3) Select SIRP antibodies were tested for their affinities to human SIRPα, SIRPβ1, and SIRPγ using a biolayer interferometry (BLI) Octet system (Pall ForteBio). Each SIRP antibody with rat or mouse Fc was immobilized on a biosensor tip by an anti-mouse IgG capture (AMC). Antibodies with human Fc were digested with gingipain K enzyme to yield monomeric F(ab′), biotinylated, then coated onto streptavidin biosensors. […] The biosensors were then exposed to wash buffer to measure off-rate kinetics. The resulting kinetic data were analyzed and fitted using a 1:1 binding model with kₒₙ and kdis fitted separately at each SIRP-His protein concentration. KD affinities were calculated as kdis to kₒₙ ratio at each concentration of SIRP-His and averaged.

Human SIRPγ [6] = target: T4, Human SIRPγ; assay: ELISA, extracellular domain coated at 2 µg/mL, purified antibody titrated, anti-rat or anti-mouse IgG, chemiluminescence
Description: as §2, with “2” for “1”, “of each of the SIRPs” for “SIRPα”, “IgG or an anti-mouse IgG” for “IgG”

Human SIRPγ CHO = target: T6, Human SIRPγ CHO; assay: flow cytometry, stably transfected CHO cells, antibody titrated, labelled anti-rat or anti-mouse IgG, MFI
T6 construct: also called human SIRPγ on CHO cells
T6 chain: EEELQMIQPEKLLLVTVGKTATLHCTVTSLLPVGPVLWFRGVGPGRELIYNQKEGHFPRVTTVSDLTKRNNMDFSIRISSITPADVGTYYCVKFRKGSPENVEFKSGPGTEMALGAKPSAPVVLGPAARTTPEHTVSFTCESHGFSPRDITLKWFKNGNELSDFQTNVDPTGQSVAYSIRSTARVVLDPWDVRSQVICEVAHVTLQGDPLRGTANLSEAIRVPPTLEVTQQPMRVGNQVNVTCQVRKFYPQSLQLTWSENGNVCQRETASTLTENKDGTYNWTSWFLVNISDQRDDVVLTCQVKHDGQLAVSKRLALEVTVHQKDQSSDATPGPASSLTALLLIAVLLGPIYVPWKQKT
Description: (§4) Selected antibodies were tested for binding to stably transfected human SIRPα, SIRPβ1 (co-transfected with DAP12), or SIRPγ Chinese hamster ovary (CHO) cells via flow cytometry. A titration of SIRP antibodies was added to the cells and detected using a fluorescently labelled secondary antibody. Graph depicts the median fluorescence intensity (MFI) at each concentration.

human SIRPγ-His monomer = target: T7, human SIRPγ-His monomer (human); assay: BLI (Octet); antibody on anti-mouse IgG capture tip, SIRP-His monomer at 100, 33.3, 11.1 nM, 1:1 fit, mean KD
T7 construct: 'SIRP-His monomer protein' of the Octet assay; also called SIRP-His; not shown: His tag
Description: as §3

[7] = target: T8, Human SIRPγ conjugated to an Fc region (human); assay: BLI blocking; 200 nM antibody pre-incubated with 20 nM SIRPγ-Fc, binding to immobilised CD47-His (competitor), % of response of SIRPγ-Fc alone
T8 construct: also called SIRPγ-Fc; SIRP-Fc; not shown: Fc region

Cynomolgus Monkey SIRPγ = target: T9, Cynomolgus Monkey SIRPγ (Macaca fascicularis); assay: ELISA, extracellular domain coated at 2 µg/mL, purified antibody titrated, anti-rat or anti-mouse IgG, chemiluminescence
T9 construct: extracellular domain; also called cyno SIRPγ extracellular domain, plate-coated
Description: as §2, with “2” for “1”, “of each of the SIRPs” for “SIRPα”, “IgG or an anti-mouse IgG” for “IgG”

human SIRPβ1-His monomer = target: T10, human SIRPβ1-His monomer (human, UniProt O00241 30-371); assay: BLI (Octet); antibody on anti-mouse IgG capture tip, SIRP-His monomer at 100, 33.3, 11.1 nM, 1:1 fit, mean KD
T10 construct: 'SIRP-His monomer protein' of the Octet assay; also called SIRP-His; not shown: His tag
Description: as §3

[8] = target: T1, human SIRPα V1 extracellular domain, …; assay: ELISA, extracellular domain coated at 2 µg/mL, purified antibody titrated, anti-rat or anti-mouse IgG, chemiluminescence
Description: as §2, with “2” for “1”, “of each of the SIRPs” for “SIRPα”, “IgG or an anti-mouse IgG” for “IgG”

Human SIRPβ1 = target: T11, Human SIRPβ1; assay: as above
T11 construct: also called human SIRPβ1 extracellular domain, plate-coated
T11 chain: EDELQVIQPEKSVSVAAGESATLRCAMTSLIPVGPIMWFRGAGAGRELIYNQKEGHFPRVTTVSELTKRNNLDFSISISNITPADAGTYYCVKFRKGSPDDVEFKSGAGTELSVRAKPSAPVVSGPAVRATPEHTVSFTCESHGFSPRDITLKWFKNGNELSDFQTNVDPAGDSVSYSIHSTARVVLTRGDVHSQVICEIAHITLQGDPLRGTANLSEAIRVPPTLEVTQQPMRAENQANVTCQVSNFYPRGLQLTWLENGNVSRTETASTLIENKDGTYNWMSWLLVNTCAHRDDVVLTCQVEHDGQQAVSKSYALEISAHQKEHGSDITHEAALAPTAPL
Description: as §2, with “2” for “1”, “of each of the SIRPs” for “SIRPα”, “IgG or an anti-mouse IgG” for “IgG”

Human SIRPβ1/DAP12 CHO = target: T12, Human SIRPβ1/DAP12 CHO; assay: flow cytometry, stably transfected CHO cells, antibody titrated, labelled anti-rat or anti-mouse IgG, MFI
T12 construct: also called human SIRPβ1 on CHO cells co-transfected with DAP12; copies: 1 + 2
Description: as §4

T12 sequence (DAP12, as listed by the source limits assumed): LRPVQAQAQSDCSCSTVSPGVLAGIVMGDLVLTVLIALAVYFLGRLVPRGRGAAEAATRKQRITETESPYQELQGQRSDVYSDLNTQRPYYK

Kd [1]: 323 nM
Kd [2]: 374 nM
Kd [3]: 384 nM
EC50 (read off the curve) (Human SIRPγ [4]): ~0.04 µg/mL
B1: Antibody 23 (antibody, V domains shown)
VH: QVQLQESGPGLVKPSGTLSLTCAVSGGSISSSNWWSWVRQPPGKGLEWIGEIYHSGSTNYNPSLKSRVTISVDKSKNQFSLKLSSVTAADTAVYYCARRGIWFGVGPWGQGTLVTVSS
VL: DIVMTQSPLSLPVTPGEPASISCRSSQSLLHGNGFNYLDWYLQKPGQSPQLLIYLGSNRASGVPDRFTGSGSGTDFTLKISRVEAEDVGVYYCMQGLQTPRTFGQGTKVEIK
notes: Variable regions of Antibody 1

Kd [5]: 57.6 nM
Kd (human SIRPγ-His monomer): 1.37 nM
binding result (Human SIRPγ [6]): binds
SIRPγ-CD47 Response (%) [7]: -4.29%
binding result (Human SIRPγ CHO): binds
B3: Antibody 10 (antibody, V domains shown)
VH: EVQLLESGGGLVQPGGSLRLSCAASGFTFSSYAMSWVRQAPGKGLEWVSAISGSGGDTYYADSVKGRFTISRDNSKSTLYLQMNSLRAEDTAVYYCAKDGGSYYPPFDYWGQGTLVTVSS
VL: SYELTQPPSVSVSPGQTASITCSGDKLGDRYACWYQQKPGQSPVLVIYQDTKRPSGIPERFSGSNSGNTATLTISGTQAMDEADYYCQACDSSTAVFGGGTKLTVL
notes: Human variable region, rat IgG2b Fc; from hybridoma

Kd (human SIRPγ-His monomer): 38.7 nM
EC50 (read off the curve) (Cynomolgus Monkey SIRPγ): ~0.09 µg/mL
EC50 (read off the curve) (Human SIRPγ [6]): ~0.05 µg/mL
SIRPγ-CD47 Response (%) [7]: 14.4%
binding result (Human SIRPγ CHO): binds
B4: Antibody 14 (antibody, V domains shown)
VH: QVQLVESGGGVVQPGRSLRLSCVASGFIFSNYGMHWVRQAPGKGLEWVAVISYDGRNEDHVDSVKGRFTISRDNSKNTLYLQMNSLRAEDTAVYYCAKGSGSYYFDYWGQGTLVTVSS
VL: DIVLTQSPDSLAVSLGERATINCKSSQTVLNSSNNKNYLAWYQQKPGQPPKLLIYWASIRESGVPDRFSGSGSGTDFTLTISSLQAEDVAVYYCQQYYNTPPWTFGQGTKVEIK
notes: as for B3

Kd [1]: 2.89 nM
Kd [2]: 22.6 nM
Kd [3]: 15 nM
SIRPγ-CD47 Response (%) [7]: -37.9%
EC50 (read off the curve) (Human SIRPγ [4]): ~0.02 µg/mL
B6: Antibody 24 (antibody, V domains shown)
VH: QVQLQESGPGLVKPSGTLSLTCAVSGGSISSSNWWSWVRQPPGKGLEWIGEIYHSGNTNYNPSLKSRVTISVDKSKNQFSLKLSSVTAADTAVYYCAREGIEGYYFYYGMDVWGQGTTVTVSS
VL: DIQLTQSPSFLSASVGDRVTITCRASQGISGYLDWYQQKPGKAPKLLIYAASTLQRGVPSRFSGSGSGTDFNLTISSLQPEDFATYYCQQFTSDLITFGQGTRLEIK
notes: Variable regions of Antibody 3

Continued, binder first:

B2: Antibody 9 (antibody, V domains shown)
VH: QVQLQQWGAGLLKPSETLSLTCAVYGGSFSTYYWNWIRQPPGKGLEWIGEINHSGSTNYNPSLKSRVIISVDTSKNQFSLKLSSVTAADTAVYYCASSHYGSGSFPDSYGMDVWGQGTTVTVSA
VL: B3 VL with P7S, C33W, T51D, C90W
notes: as for B3
Kd [5]: 1.24 nM
binding result (Human SIRPγ [6]): binds
binding result (Human SIRPγ CHO): binds

B5: Antibody 3 (antibody, V domains shown)
VH: B6 VH
VL: B6 VL
notes: as for B3
Kd [1]: 4.57 nM
Kd [3]: 513 nM
Kd [5]: 3.1 nM
Kd (human SIRPβ1-His monomer): 7500 nM
Kd (human SIRPγ-His monomer): 103 nM
EC50 (read off the curve) [8]: ~0.1 µg/mL
EC50 (read off the curve) (Cynomolgus Monkey SIRPγ): ~0.1 µg/mL
EC50 (read off the curve) (Human SIRPβ1): ~0.06 µg/mL
EC50 (read off the curve) (Human SIRPγ [6]): ~0.06 µg/mL
SIRPγ-CD47 Response (%) [7]: -7.23%
EC50 (read off the curve) (Human SIRPγ CHO): ~0.2 µg/mL

B7: Antibody 8 (antibody, V domains shown)
VH: QVQLQQWGAGLLKPSETLSLTCAVYGGSFSGYYWSWIRQPPGKGLEWIGEINHSGSTNFNPSLKSRVTISVDTSKNQFSLKLRSVTAADTAVYYCSRVDSGSYPYYDGLDVWGQGTTVTVSS
VL: SSELTQPPSVSVSPGQTASITCSGDKLGDKYVYWYQQKPGQSPVLVIYHDDRRPAGIPERFAGSASGNTATLTISGTQAMDEADYYCQTWDSSTVVFGGGTKLTVL
notes: as for B3
Kd [5]: 46.6 nM
Kd (human SIRPβ1-His monomer): 78.9 nM
Kd (human SIRPγ-His monomer): 50 nM
EC50 (read off the curve) [8]: ~0.03 µg/mL
EC50 (read off the curve) (Cynomolgus Monkey SIRPγ): ~0.03 µg/mL
EC50 (read off the curve) (Human SIRPβ1): ~0.02 µg/mL
EC50 (read off the curve) (Human SIRPγ [6]): ~0.02 µg/mL
SIRPγ-CD47 Response (%) [7]: -4.94%
binding result (Human SIRPβ1/DAP12 CHO): binds
binding result (Human SIRPγ CHO): binds
